The test system of this data set is N[C@@H](CCC(=O)N[C@H]1CSSC[C@H](NC(=O)CC[C@H](N)C(=O)O)C(=O)NCC(=O)NCCCNCCCCNC(=O)CNC1=O)C(=O)O. The data set can be described thus: purified protein, by the assay type. The conditions noted are these: pH 7.4, 25.0 °C.

Usually Km stands for the concentration of substrate that gives half-maximal velocity.

Regarding “TbTryR (Trypanosoma brucei brucei TREU927)”, the Michaelis-Menten constant (Km) (other: 340 nm assay) was 6.9 ± 0.7 µM.

In the case of “TbTryR (recombinant T. b. brucei trypanothione reductase) (Trypanosoma brucei brucei TREU927)”, the Km (other: saturating NADPH) is 2.35 ± 0.07 µM.

The record behind these values is article PMC2789240, “Comparative structural, kinetic and inhibitor studies of Trypanosoma brucei trypanothione reductase with T. cruzi^” (Molecular and Biochemical Parasitology, 2010).
